Experimental data reported in US20200113912A1, “Methods and Compositions for the Treatment of Disease with Immune Stimulatory Conjugates” (Silverback Therapeutics, Inc., priority 2018, published 2020).

Assays:
[1] = Single-dose pharmacokinetic profile in cynomolgus monkey (serum ELISA); format: in vivo
Experimental: The pharmacokinetic profile of a single dose of HER2-TLR8 administered subcutaneously at 2, 6, or 12 mg/kg or intravenously at 7.5 mg/kg in cynomolgus monkey was studied. Blood was collected by venous puncture at a series of timepoints pre and post-dosing. Serum was prepared and HER2-TLR8 was measured by an ELISA assay in which serum samples were added to an assay plate coated with recombinant HER2 and HER2-TLR8 was detected using a labelled antibody directed against the TLR8 payload.

[2] = Repeat-dose intravenous administration in cynomolgus monkey; format: in vivo
Experimental: The monkey used in this study was purpose-bred, treatment-naïve, and housed and treated at Charles River Laboratories in Reno, Nev., in accordance with US FDA GLP regulations. The target age and weight of the animal at time of dosing was 2 to 4 years and 2.5 to 3.5 kg, respectively, and the animal used on study was female. HER2-TLR8 was evaluated on a repeat dose schedule as follows: 1 mg/kg was dosed on Day 1, followed by a 7.5 mg/kg dose administered one week later on Day 8 and a third 7.5 mg/kg dose administered three weeks later on Day 29. After each dose, the animal was observed cage-side for clinical signs and symptoms associated with dosing. […] This animal was euthanized due to the rapid onset of clinical signs of pale mucus membranes and face, hunched posture, decreased activity, hypothermia (as assessed by being cool to the touch), and labored, shallow breathing. These clinical signs presented within 2.5 hour following dosing on Day 29.

[3] = test system: C-reactive protein (CRP); experiment: Pharmacodynamic response (CRP) after repeat SC dosing in non-human primates; format: in vivo, cynomolgus monkey; settings: repeat-dose SC, 2, 6 and 12 mg/kg
From the text: Blood samples were collected by venous puncture at various timepoints and analyzed for blood chemistries, including C-reactive protein (CRP), using a standard blood analyzer.

[4] = Repeat-dose subcutaneous administration in cynomolgus monkey; format: in vivo; settings: SC
Experimental: The monkey used in this study was purpose-bred, treatment-naïve, and housed and treated at Charles River Laboratories in Reno, Nev., in accordance with US FDA GLP regulations. The target age and weight of the animal at time of dosing was 2 to 4 years and 2.5 to 3.5 kg, respectively, and the animal used on study was female. HER2-TLR8 was evaluated on a repeat dose schedule as follows: 2 mg/kg dose was subcutaneously administered on a Q2W dosing schedule over 4 dosing cycles, 6 mg/kg was subcutaneously administered on a Q3W dosing schedule over 4 dosing cycles and 12 mg/kg was subcutaneously administered on a Q3W dosing schedule over 4 dosing cycles. After each dose, the animal was observed cage-side for clinical signs and symptoms associated with dosing.

[5] = test system: BMDM + MDA-MB-468 (HER2neg); experiment: mTNFα from bone marrow derived macrophages co-cultured with MDA-MB-468; format: cell-based, mouse; settings: 24 hours; conjugate 100-0.001 nM, payload 1000-0.001 nM; HER2neg MDA-MB-468
Experimental: (§1) The ability of an anti-HER2-TLR7 conjugate to specifically activate mouse macrophages when bound to tumor cells by HER2 was assessed in vitro as follows. Bone marrow cells were harvested from BALB/cJ mouse femurs and tibias using a 27-gauge needle attached to a 3 mL syringe filled with growth media (DMEM supplemented with 10% Fetal Bovine Serum, 1 mM Sodium Pyruvate, 1× GlutaMAX-1, 1× Non-Essential Amino Acids, 10 mM HEPES and 0.5% Penicillin/Streptomycin). Bone marrow cells were centrifuged, and RBC were lysed before being counted and resuspended at a concentration 5×10^5/mL in growth media. Ten mL of cell suspension was placed in 10 cm dishes and 20 ng/mL murine macrophage-colony-stimulating factor (mM-CSF) was added. […] Bone marrow derived macrophage cells lines (BMDM) and tumor cell lines SK-BR-3 (HER2pos) or MDA-MB-468 (HER2neg) were removed from plates with Accutase cell detachment solution and counted. […]
(§2) After culture, supernatants were collected and frozen at −80° C. until cytokine analysis was performed. Murine TNFα (mTNFα) levels in the supernatant were determined by mTNFα ELISA Kit (BioLegend) and read on an Envision Plate Reader (Perkin Elmer, Waltham, Mass.) according to manufacturer's instructions. mTNFα levels were then graphed using GraphPad Prism 7.01 software (GraphPad Software, San Diego, Calif.) and EC50 values were generated using non-linear regression curve fit.

[6] = test system: BMDM + SK-BR-3 (HER2pos); experiment: mTNFα from bone marrow derived macrophages co-cultured with SK-BR-3; format: cell-based, mouse; settings: 24 hours; conjugate 100-0.001 nM, payload 1000-0.001 nM; HER2pos SK-BR-3
Experimental: as §1, §2

[7] = 10 μg per mouse, 5 minutes following second dose of HER2-TLR7 5 mg/kg
Experimental: Rectal temperatures and clinical scores were assessed as previously shown.

Compound: CCCN(CCC)C(=O)C1=Cc2ccc(C(=O)Nc3cnc4c(c3)CN(C(=O)OCc3ccc(NC(=O)[C@H](CCCNC(N)=O)NC(=O)[C@@H](NC(=O)CCCCCN5C(=O)C=CC5=O)C(C)C)cc3)CC4)cc2N=C(N)C1 [HER2-TLR8]
- AUC ([1]; 7.5 mg/kg, IV, 7.5 mpk): 3770 µg·h/mL
- AUC ([1]; subcutaneous, 2 mg/kg, SubC, 2 mpk): 714 µg·h/mL
- AUC ([1]; subcutaneous, 6 mg/kg, SubC, 6 mpk): 2400 µg·h/mL
- AUC ([1]; subcutaneous, 12 mg/kg, SubC, 12 mpk): 3650 µg·h/mL
- anaphylaxis-like response after the first two doses ([2]; IV bolus, 1 mg/kg Day 1 and 7.5 mg/kg Day 8): did not produce an anaphylaxis-like response
- outcome of the third intravenous dose ([2]; IV bolus, 7.5 mg/kg Day 29): resulted in mortality
- time to presentation of clinical signs following dosing ([2]; third IV dose, 7.5 mg/kg Day 29): ≤ 2.5 h
- C-reactive protein (CRP) in blood [3]: consistent, modest elevation of C-reactive protein (CRP) with each dosing cycle
- tolerability ([4]; 2 mg/kg Q2W, 6 mg/kg Q3W, 12 mg/kg Q3W, 4 dosing cycles): well-tolerated at all dose levels and through all dosing cycles
- clinical anaphylaxis-like signs or symptoms ([4]; first or repeat dose at any dose level (2, 6, 12 mg/kg)): No clinical, anaphylaxis-like signs or symptoms were observed

Compound: CCOCc1nc2c(N)nc3ccccc3c2n1CC(C)(C)OCCNC(=O)C(C)(C)N [TLR7 payload compound]
- activation of macrophages (mTNFα in supernatant) [5]: capable of potently activating the macrophages in the presence of both cell lines
- activation of macrophages (mTNFα in supernatant) [6]: capable of potently activating the macrophages in the presence of both cell lines

Compound: CNC[C@H](O)c1ccc(O)c(O)c1 [epinephrine]
- effect on toxicity of second IV dose of HER2-TLR7 [7]: mitigates the toxicity
